This note sets out measurements from article PMC4737498, “An Anti-proteome Nanobody Library Approach Yields a Specific Immunoassay for Trypanosoma congolense Diagnosis Targeting Glycosomal Aldolase” (PLoS Neglected Tropical Diseases, 2016).

Common to all, as to details: one partner purified
Experiment [1] addresses T1, native T. congolense glycosomal fructose-1,6-bisphosphate aldolase (Trypanosoma congolense (TC13 soluble …, UniProt G0UWE7)).
T1 construct: glycosomal fructose-1,6-bisphosphate aldolase of Trypanosoma congolense, UniProtKB G0UWE7; band at about 40 kDa identified by mass spectrometry; Samples came from different strains (TC13, IL3000 and others); also called TcoALD; native TcoALD; source: endogenous, T. congolense soluble proteome (TC13), sera of T. congolense infected mice, T. congolense IL3000 secretome; in fixed T. congolense …
Kind of experiment: ELISA; homologous sandwich Nb474-ELISA, capture step: Nb474H coated on Nunc plate (0.02 μg/ml in PBS, overnight 4°C), T. congolense soluble proteome, infected sera or secretome added 1 h at 22°C.

Experiment [2] addresses T2, recombinant T. congolense glycosomal aldolase (Trypanosoma congolense IL3000, UniProt G0UWE7).
T2 construct: His6-tag with a proximal tobacco etch virus cleavage site; Construct synthesised by GenScript; also called TcoALD; recombinant TcoALD; source: E. coli BL21(DE3), pET-21b(+), in crude lysate (18 h post-induction)
The experiment is described as follows: ELISA; homologous sandwich (Nb474H-Nb474B), capture step: crude soluble proteins of E. coli expressing recombinant aldolase (10 μg/well) on coated Nb474H.

Experiment [3] deals with T1, native T. congolense glycosomal …. Kind of experiment: ELISA; homologous sandwich Nb474-ELISA, detection step: Nb474B (0.02 μg/ml, 1 h at 22°C) on antigen captured from T. congolense samples by coated Nb474H; strep-HRP and TMB.
The target of experiment [4] is T2, recombinant T. congolense glycosomal …. The experiment is described as follows: ELISA; homologous sandwich (Nb474H-Nb474B), detection step: Nb474B on recombinant aldolase captured from crude E. coli lysate by coated Nb474H.

B1: Nb474H (His6-tagged Nanobody 474) (VHH)
VHH: QVQLQESGGGLVQPGGSLRLSCAASETALTYYAIGWFRQAPGKEREGVSCISRINSGSGARTDYADSVKGRFTISRDDAKNTVTLQMNSLEPEDTARYYCALDTTDRYDSANGRYYCTISSDTYDYWGQGTQVTVSS
notes: from an alpaca immunised with T. congolense TC13 soluble proteome; also called capturing Nb; His6-tag Nb; source: E. coli WK6 (pHEN6c), periplasmic extract, purified (His-Select Nickel, size exclusion chromatography)
As to B1, the binding result in experiment [1] and in experiment [2] was “binds” throughout.

B2: Nb474B (biotinylated Nanobody 474) (VHH)
VHH: QVQLQESGGGLVQPGGSLRLSCAASETALTYYAIGWFRQAPGKEREGVSCISRINSGSGARTDYADSVKGRFTISRDDAKNTVTLQMNSLEPEDTARYYCALDTTDRYDSANGRYYCTISSDTYDYWGQGTQVTVSS
notes: same Nb as m1; also called detecting Nb; detection Nb
In the case of B2, the binding result in experiment [3] and in experiment [4] was “binds” throughout.
